Laboratory results: publication PMC9371724 (2022)

T1: hemagglutinin (HA) of pandemic 2009 H1N1 (pHA, HA69) peptide on HLA-DQA1*01:02 / HLA-DQB1*06:02 (human)
T1 peptide: AMERNAGSGIIISDT

T2: HA69 peptide on HLA DQB1*06:02/DQA1*01:02 (DQ0602) (human)
T2 peptide: AMERNAGSGIIISDT

B1: TCR CIVRVLTNQGGKLIF / CASSFQGLSTDTQYF (TCR)
alpha TRAV26-1 TRAJ23 CDR3: CIVRVLTNQGGKLIF
beta TRBV12-3 TRBJ2-3 CDR3: CASSFQGLSTDTQYF
B2: TCR CLVGDMEYGNKLVF / CASSQAPPSGNEQFF (TCR)
alpha TRAV4 TRAJ47 CDR3: CLVGDMEYGNKLVF
beta TRBV4-2 TRBJ2-1 CDR3: CASSQAPPSGNEQFF
B3: TCR CVVNGEAPGNQFYF / CASSVASSSYNEQFF (TCR)
alpha TRAV12-1 TRAJ49 CDR3: CVVNGEAPGNQFYF
beta TRBV4-2 TRBJ2-1 CDR3: CASSVASSSYNEQFF
B4: TCR CALSGDNAGNNRKLIW / CASNSRLAGGHVAYNEQFF (TCR)
alpha TRAV19 TRAJ38 CDR3: CALSGDNAGNNRKLIW
beta TRBV12-3 TRBJ2-1 CDR3: CASNSRLAGGHVAYNEQFF
B5: TCR CIVRVATNQGGKLIF / CASSPQGGLAEQYF (TCR)
alpha TRAV26-1 TRAJ23 CDR3: CIVRVATNQGGKLIF
beta TRBV19 TRBJ2-7 CDR3: CASSPQGGLAEQYF
B6: TCR CIVRVGTNQGGKLIF / CASSQDRAGTNTEAFF (TCR)
alpha TRAV26-1 TRAJ23 CDR3: CIVRVGTNQGGKLIF
beta TRBV4-2 TRBJ1-1 CDR3: CASSQDRAGTNTEAFF
B7: TCR CAARQMDSSYKLIF / CASSVASSSYNEQFF (TCR)
alpha TRAV23/DV6 TRAJ12 CDR3: CAARQMDSSYKLIF
beta TRBV4-2 TRBJ2-1 CDR3: CASSVASSSYNEQFF
B8: TCR CAVSGGNAGNMLTF / CATQKGDRGQSWGYTF (TCR)
alpha TRAV2 TRAJ39 CDR3: CAVSGGNAGNMLTF
beta TRBV6-1 TRBJ1-2 CDR3: CATQKGDRGQSWGYTF
B9: TCR CAVSDNPRVQGAQKLVF / CSAAGTGGAGTEAFF (TCR)
alpha TRAV8-6 TRAJ54 CDR3: CAVSDNPRVQGAQKLVF
beta TRBV29-1 TRBJ1-1 CDR3: CSAAGTGGAGTEAFF
B10: TCR CAVSPSDSWGKLQF / CASSYPGLSQETQYF (TCR)
alpha TRAV8-2 TRAJ24 CDR3: CAVSPSDSWGKLQF
beta TRBV5-5 TRBJ2-5 CDR3: CASSYPGLSQETQYF
B11: TCR CATDTENNARLMF / CSAGGAGPKMQYF (TCR)
alpha TRAV17 TRAJ31 CDR3: CATDTENNARLMF
beta TRBV20-1 TRBJ2-7 CDR3: CSAGGAGPKMQYF
B12: TCR CIVRVVSNQGGKLIF / CASSPQGFDYGYTF (TCR)
alpha TRAV26-1 TRAJ23 CDR3: CIVRVVSNQGGKLIF
beta TRBV19 TRBJ1-2 CDR3: CASSPQGFDYGYTF
B13: TCR CIVRANTGNQFYF / CASSPDGTGVGNTIYF (TCR)
alpha TRAV26-1 TRAJ49 CDR3: CIVRANTGNQFYF
beta TRBV4-2 TRBJ1-3 CDR3: CASSPDGTGVGNTIYF
B14: TCR CAVSDGGTSYGKLTF / CASSQGNTGHSPLHF (TCR)
alpha TRAV8-6 TRAJ52 CDR3: CAVSDGGTSYGKLTF
beta TRBV4-3 TRBJ1-6 CDR3: CASSQGNTGHSPLHF
B15: TCR CVVSEPGTYKYIF / CASSPDGTGVGNTIYF (TCR)
alpha TRAV8-2 TRAJ40 CDR3: CVVSEPGTYKYIF
beta TRBV4-2 TRBJ1-3 CDR3: CASSPDGTGVGNTIYF
B16: TCR CIVRVATNQAGTALIF / CASSTQGAFAEAFF (TCR)
alpha TRAV26-1 TRAJ15 CDR3: CIVRVATNQAGTALIF
beta TRBV19 TRBJ1-1 CDR3: CASSTQGAFAEAFF
B17: TCR CATGSYNTDKLIF / CASSPDGTGVGNTIYF (TCR)
alpha TRAV17 TRAJ34 CDR3: CATGSYNTDKLIF
beta TRBV4-2 TRBJ1-3 CDR3: CASSPDGTGVGNTIYF
B18: TCR CAVSPGNNQGGKLIF / CASSTQGAGEAFF (TCR)
alpha TRAV8-2 TRAJ23 CDR3: CAVSPGNNQGGKLIF
beta TRBV19 TRBJ1-1 CDR3: CASSTQGAGEAFF
B19: TCR CAMRGQDSGYSTLTF / CASSIVRGLYSNQPQHF (TCR)
alpha TRAV14/DV4 TRAJ11 CDR3: CAMRGQDSGYSTLTF
beta TRBV19 TRBJ1-5 CDR3: CASSIVRGLYSNQPQHF
B20: TCR CIVRVGTNQAGTALIF / CASREQGLDYGYTF (TCR)
alpha TRAV26-1 TRAJ15 CDR3: CIVRVGTNQAGTALIF
beta TRBV19 TRBJ1-2 CDR3: CASREQGLDYGYTF
B21: TCR CAGRPNSGGSNYKLTF / CASSDQAAWAGYTF (TCR)
alpha TRAV35 TRAJ53 CDR3: CAGRPNSGGSNYKLTF
beta TRBV19 TRBJ1-2 CDR3: CASSDQAAWAGYTF
B22: TCR CATDAELGNKLVF / CASSQDRGRGTDTQYF (TCR)
alpha TRAV17 TRAJ47 CDR3: CATDAELGNKLVF
beta TRBV4-2 TRBJ2-3 CDR3: CASSQDRGRGTDTQYF
B23: TCR CAVSERGAQKLVF / CSAPSGGGRASGANVLTF (TCR)
alpha TRAV8-6 TRAJ54 CDR3: CAVSERGAQKLVF
beta TRBV20-1 TRBJ2-6 CDR3: CSAPSGGGRASGANVLTF
B24: TCR538 (TCR)
alpha TRAV4 TRAJ42 CDR3: CLVGAPSLYGGSQGNLIF
beta TRBV7-8 TRBJ2-1 CDR3: CASNPAGAVSYNEQFF
B25: TCR CAGKENSGGSNYKLTF / CASRVQGARAEAFF (TCR)
alpha TRAV25 TRAJ53 CDR3: CAGKENSGGSNYKLTF
beta TRBV19 TRBJ1-1 CDR3: CASRVQGARAEAFF
B26: TCR CIASGTYKYIF / CASSKGETGTQWSYEQYF (TCR)
alpha TRAV26-1 TRAJ40 CDR3: CIASGTYKYIF
beta TRBV4-2 TRBJ2-7 CDR3: CASSKGETGTQWSYEQYF
B27: TCR CVHNAGNMLTF / CASSFQGLSTDTQYF (TCR)
alpha TRAV25 TRAJ39 CDR3: CVHNAGNMLTF
beta TRBV12-3 TRBJ2-3 CDR3: CASSFQGLSTDTQYF
B28: TCR CILRDVLSNFGNEKLTF / CASSQASVSVDTQYF (TCR)
alpha TRAV26-2 TRAJ48 CDR3: CILRDVLSNFGNEKLTF
beta TRBV4-2 TRBJ2-3 CDR3: CASSQASVSVDTQYF
B29: TCR CAGRPNSGGSNYKLTF / CASSGQQALYGYTF (TCR)
alpha TRAV35 TRAJ53 CDR3: CAGRPNSGGSNYKLTF
beta TRBV19 TRBJ1-2 CDR3: CASSGQQALYGYTF
B30: TCR CIVRSQGGSYIPTF / CATSRDTMTSIGTDTQYF (TCR)
alpha TRAV26-1 TRAJ6 CDR3: CIVRSQGGSYIPTF
beta TRBV15 TRBJ2-3 CDR3: CATSRDTMTSIGTDTQYF
B31: TCR CAASRGTSYDKVIF / CSVRGLYNEQFF (TCR)
alpha TRAV13-1 TRAJ50 CDR3: CAASRGTSYDKVIF
beta TRBV29-1 TRBJ2-1 CDR3: CSVRGLYNEQFF
B32: TCR CAVSEKNTGFQKLVF / CASRKGLGDTDTQYF (TCR)
alpha TRAV8-6 TRAJ8 CDR3: CAVSEKNTGFQKLVF
beta TRBV6-1 TRBJ2-3 CDR3: CASRKGLGDTDTQYF
B33: …-1 (TCR)
alpha TRAV8-6 TRAJ24 CDR3: CAVSEDDSWGKLQF
beta TRBV29-1 TRBJ1-6 CDR3: CSVARDRNSPLHF
B34: TCR CIVRAGGTSYGKLTF / CAWSPLAGTGAPQPQHF (TCR)
alpha TRAV26-1 TRAJ52 CDR3: CIVRAGGTSYGKLTF
beta TRBV30 TRBJ1-5 CDR3: CAWSPLAGTGAPQPQHF
B35: TCR CAASRGTSYDKVIF / CSVDRYYNEQFF (TCR)
alpha TRAV13-1 TRAJ50 CDR3: CAASRGTSYDKVIF
beta TRBV29-1 TRBJ2-1 CDR3: CSVDRYYNEQFF
B36: TCR CAVGSTDSWGKLQF / CASRLDPTGHMNTEAFF (TCR)
alpha TRAV8-3 TRAJ24 CDR3: CAVGSTDSWGKLQF
beta TRBV19 TRBJ1-1 CDR3: CASRLDPTGHMNTEAFF
B37: TCR CAGRPTSGGSNYKLTF / CASSGGQAYYGYTF (TCR)
alpha TRAV35 TRAJ53 CDR3: CAGRPTSGGSNYKLTF
beta TRBV19 TRBJ1-2 CDR3: CASSGGQAYYGYTF
B38: TCR108 (TCR)
alpha TRAV8-3 TRAJ24 CDR3: CAVGFTDSWGKLQF
beta TRBV19 TRBJ2-1 CDR3: CASSIDPSGNHYNEQFF
B39: TCR CAASRGTSYDKVIF / CSATGLYNEQFF (TCR)
alpha TRAV13-1 TRAJ50 CDR3: CAASRGTSYDKVIF
beta TRBV20-1 TRBJ2-1 CDR3: CSATGLYNEQFF
B40: TCR846 (TCR)
alpha TRAV8-6 TRAJ54 CDR3: CAVSESAQGAQKLVF
beta TRBV19 TRBJ2-3 CDR3: CASSRPGLNTDTQYF
B41: TCR CAASRGTSYDKVIF / CSTQRLYNEQFF (TCR)
alpha TRAV13-1 TRAJ50 CDR3: CAASRGTSYDKVIF
beta TRBV29-1 TRBJ2-1 CDR3: CSTQRLYNEQFF
B42: TCR CAMREGHIQGAQKLVF / CASSSGNLNTEAFF (TCR)
alpha TRAV14/DV4 TRAJ54 CDR3: CAMREGHIQGAQKLVF
beta TRBV19 TRBJ1-1 CDR3: CASSSGNLNTEAFF
B43: TCR CAAVGMNGGAQKLVF / CASRSQGWGTEAFF (TCR)
alpha TRAV13-1 TRAJ54 CDR3: CAAVGMNGGAQKLVF
beta TRBV19 TRBJ1-1 CDR3: CASRSQGWGTEAFF
B44: TCR CAVEETSGSRLTF / CASSQPDTRADTQYF (TCR)
alpha TRAV39 TRAJ58 CDR3: CAVEETSGSRLTF
beta TRBV4-2 TRBJ2-3 CDR3: CASSQPDTRADTQYF
B45: TCR CASAYTGTASKLTF / CASSIDLGGRADGGYTF (TCR)
alpha TRAV17 TRAJ44 CDR3: CASAYTGTASKLTF
beta TRBV19 TRBJ1-2 CDR3: CASSIDLGGRADGGYTF
B46: TCR755 (TCR)
alpha TRAV12-3 TRAJ8 CDR3: CAMSETRFQKLVF
beta TRBV19 TRBJ2-7 CDR3: CASSSTGGNYEQYF
B47: TCR861 (TCR)
alpha TRAV13-1 TRAJ50 CDR3: CAASRGTSYDKVIF
beta TRBV29-1 TRBJ2-1 CDR3: CSVRSLYNEQFF
B48: TCR285 (TCR)
alpha TRAV13-1 TRAJ49 CDR3: CAATPGRTGNQFYF
beta TRBV4-2 TRBJ2-5 CDR3: CASSQGQGDETQYF
B49: TCR CAAADTGNQFYF / CASSSHGQGNQPQHF (TCR)
alpha TRAV13-1 TRAJ49 CDR3: CAAADTGNQFYF
beta TRBV7-8 TRBJ1-5 CDR3: CASSSHGQGNQPQHF
B50: TCR CALTMKTSYDKVIF / CASSIGTSGPDTQYF (TCR)
alpha TRAV9-2 TRAJ50 CDR3: CALTMKTSYDKVIF
beta TRBV19 TRBJ2-3 CDR3: CASSIGTSGPDTQYF
B51: TCR CAVNRADSWGKLQF / CASSIDKTGHSNQPQHF (TCR)
alpha TRAV12-2 TRAJ24 CDR3: CAVNRADSWGKLQF
beta TRBV19 TRBJ1-5 CDR3: CASSIDKTGHSNQPQHF
B52: …-1 (TCR)
alpha TRAV8-3 TRAJ24 CDR3: CAVGLTDSWGKLQF
beta TRBV19 TRBJ2-1 CDR3: CASSFSKNGNSYNEQFF
B53: TCR CATGHTGANSKLTF / CASSLQGTPNGNQPQHF (TCR)
alpha TRAV17 TRAJ56 CDR3: CATGHTGANSKLTF
beta TRBV19 TRBJ1-5 CDR3: CASSLQGTPNGNQPQHF
B54: TCR CAATDTGNQFYF / CASSQHGQGNQPQHF (TCR)
alpha TRAV13-1 TRAJ49 CDR3: CAATDTGNQFYF
beta TRBV7-8 TRBJ1-5 CDR3: CASSQHGQGNQPQHF

Molecular target: T1, hemagglutinin (HA) of pandemic 2009 …
Assay: activation reporter or marker

Binder	binding result
B1	no recognition
B2	no recognition
B3	no recognition
B4	no recognition
B5	no recognition
B6	no recognition
B7	no recognition
B8	no recognition
B9	no recognition
B10	no recognition
B11	no recognition
B12	no recognition
B13	no recognition
B14	no recognition
B15	no recognition
B16	no recognition
B17	no recognition
B18	no recognition
B19	no recognition
B20	no recognition

Molecular target: T2, HA69 peptide on HLA …
Assay: activation reporter or marker

Binder	binding result
B21	recognises
B22	recognises
B23	recognises
B24	recognises
B25	recognises
B26	recognises
B27	recognises
B28	recognises
B29	recognises
B30	recognises
B31	recognises
B32	recognises
B33	no recognition
B34	recognises
B35	recognises
B36	recognises
B37	recognises

Binder	binding result
B38	recognises
B39	recognises
B40	recognises
B41	recognises
B42	recognises
B43	recognises
B44	recognises
B45	recognises
B46	recognises
B47	recognises
B48	recognises
B49	recognises
B50	recognises
B51	recognises
B52	no recognition
B53	recognises
B54	recognises
